Legend:
[1] = test system: Ki67, cyclin D1, VEGF in HCT8 and DLD1 cells; assay: Ki67, cyclin D1 and VEGF expression; assay type: cell-based, human
human RBCs = assay: Hemolysis of human RBCs; assay type: cell-based
Excerpt: However, overexpression of at least three components (makCBA) or whole operon (makDCBA) was required for lethality against C. elegans. (Dongre et al. (2018) Commun Biol. 2018 Jun. 7; 1:59) B) MakA causes cell death in tumor cell lines (HCT8 and DLD1=colon cancer cell, PC3=Prostate cancer cells, HTB9=Bladder cancer cell, PC3=Prostate cancer cell, Suit2=Pancreatic cancer cell, MCF7=Breast cancer cells) of diverse origin. The healthy non-cancerous cells from colon (CCD-18Co and CCD 841 CoN), prostate (PNT1A) and oral fibroblasts (PDL1) were intermediately sensitive compared to tumor cells. […] TritonX-100 (0.1%) induced RBCs hemolysis was used as a positive control. D) MakA induced dramatic changes in tumor cell morphology, unlike non-cancerous PDL1 fibroblasts that were largely unaffected. Scale bar=20 μm.

tumor cell membrane = assay: Transmission electron microscopy of membranes; assay type: cell-based; details: versus vehicle (Tris 20 mM)
Excerpt: To address if MakA accumulation at the cell surface may play an important role in tumor cell membrane perturbation, cells treated with MakA were compared to untreated cells and imaged with transmission electron microscopy (TEM). […] The mitochondrial damage was confirmed by confocal microscopy (FIG. 4B).

[2] = test system: β-catenin in HCT8 and DLD1 cells; assay: β-catenin signaling in colon cancer cells (western blot, fractionation, confocal); assay type: cell-based, human
Procedure: (§1) Colon carcinoma cells were grown on 8-well chamber slide (3×10^4/well, Millipore) overnight, followed by treatment with MakA for 6 or 24 hours and treated with either Alexa-568 labelled or unlabeled MakA (500 nM), fixed with 2% paraformaldehyde (20 min), permeabilized with Triton X (0.25%). Cells were incubated with anti-Ki67 (1:300), anti-β-catenin (1:300), anti-pAKT (1:100) primary antibodies overnight at +4° C., followed by incubation with corresponding Alexa-488 or Alex-568 conjugated secondary antibodies (1:200) for 1 hour. Finally, cells were counterstained with nuclear marker DAPI for 5 min. Slides were mounted with Fluoromount™ aqueous mounting medium (Sigma) and examined using EZC1 Eclipse laser scanning confocal microscope (Nikon), using 63×/1.4 plan Apo ns lens. Images were captured and processed using the NIS-Elements (Nikon) and ImageJ software.
To examine whether MakA affects β-catenin signaling in human colon cancer cells, HCT8 and DLD1 cells carrying mutations that inactivates APC tumor suppressor gene (Mouradov, D. et al. (2014) Cancer Res. 2014 Jun. 15; 74(12):3238-47) were used.
To address if MakA decreases the nuclear accumulation of β-catenin, cells were treated with MakA and fractionated into cytoplasmic and nuclear fractions.
As caspase-3 mediated fragmentation of β-catenin has been reported (Steinhusen, U. et al. (2000) J Biol Chem 275: 16345-16353), its role in MakA induced β-catenin fragmentation was investigated.

colon carcinoma cells [3] = assay: Mitochondrial potential by DiOC6 staining, flow cytometry; assay type: cell-based, human
Excerpt: (§2) A) MakA induces concentration-dependent apoptotic cell death in HCT8 cells. B) Quantification of flow cytometry events from (A). […] Scale bar=50 μm. D) MakA induces fragmentation of tumor cell nuclei. Scale bar=10 μm E) Accumulation of Bax (green) to the mitochondria of apoptotic cells by MakA. DAPI was used as a nuclear marker. Scale bar=10 μm. F) MakA caused loss of mitochondrial potential in colon carcinoma cells as evident by loss of DiOC6 staining, quantified by flow cytometry. G) MakA causes activation of pro-apoptotic proteins including caspase 3, cytochrome C and Bax and suppression of antiapoptotic protein, Bcl2.

tumor cell proliferation = assay: Colony forming assay; assay type: cell-based
Excerpt: The effect of MakA on tumor cell proliferation was investigated.

C. elegans = details: MakA overexpressed in E. coli; cited from earlier work
CT26 cell line = assay: CT26 xenograft mice model of colon cancer; assay type: in vivo; details: repeated intratumor injection, 25 μg, from day 9, sacrificed day 21, versus vehicle
Procedure: A) Colon cancer was established using the rapidly proliferating CT26 cell line. From day 9, mice were treated by repeated intratumor injection of MakA (25 μg) or Vehicle (Tris 20 mM) at indicated intervals and sacrificed on day 21.
The therapeutic effect of MakA against colon cancer was investigated in a well-established colon cancer model. Colon cancer was established using the rapidly proliferating CT26 cell line. From day 9, mice were treated by repeated intratumor injection of MakA (25 μg) or Vehicle (Tris 20 mM) at indicated intervals and sacrificed on day 21 (FIG. 7A).

HCT8 cells [4] = assay: MakA with 5FU, tumor cell morphology; assay type: cell-based, human; details: HCT8, compared to untreated control
Procedure: B) Change in tumor cell morphology in response to MakA and 5FU or MakA at different concentration in combination with 5FU (20 μM). Scale bar=30 μm
Further, the effect on tumor cell morphology was investigated. Unlike 5FU or MakA alone, the combination of MakA and 5FU caused massive changes in tumor cell morphology (FIG. 8B).

colon carcinoma cells [5] = assay: Fluorescence and confocal microscopy of apoptosis markers; assay type: cell-based, human
Excerpt: as §2, §1

HCT8 cells [6] = assay: Apoptotic cell death by flow cytometry; assay type: cell-based, human; details: 48 h
Procedure: For cell death analysis, cells were treated with MakA or vehicle control for 48 h and were subjected to flow cytometry analysis for apoptotic cell death measurement using either Annexin V/Propidium iodide or Annexin V/7AAD (BD Pharmingen) staining according to manufactures instruction. Percentage of apoptotic cells was determined by BD LSRII and BD Accuri C6 flow cytometer (BD Bioscience), respectively.
Apoptotic cell death in response to MakA was investigated using flow cytometry and fluorescent microscopy.

tumor cell migration = assay: Tumor cell migration; assay type: cell-based
[7] = test system: Bax, Bcl2, cytochrome c, caspase 3 in HCT8 cells; assay: Western blotting of apoptosis proteins; assay type: cell-based, human
Excerpt: The regulation of apoptosis involves activation of caspases, increase in Bax/Bcl2 ratio and release of cytochrome c from mitochondria to cytoplasm (Elmore, S. (2007) Toxicol Pathol. 2007; 35(4): 495-516). The effect of MakA on expression of these proteins was investigated using western blotting.
The effect of MakA on expression of cytochrome c and caspase 3 activation was investigated.

[8] = western blot, HCT8 and DLD1 cells

B1: MakA (protein, listed as Vibrio cholerae)
chain: MSQQVTQLNPTQQTTQSAFLATTVITAQCHAILNTQFTPPTVKPDWFDDLSKKLDSAKLVAKQWIDDLGPQVSASIPSSVINFDATFQASIDAIHELYKADPTASGKDNTTVQQASQIMTALSSQVSGIEATVKGMNKELSDWGVKMQAAHDDLVNGATNIQKTIIDLQTDIESMNNAIDNNRAAIEKLNKDLVYAQVAVGVGIFMLVAGVALTVATAGTAAAVSGGIAAVGAASIIAGGVTWGVLQNQIDDDYDSIAQEQKQKAEDQQQIIALQGLSNASSAVVSAIETSTSVLSDFETTWTVFGNELDDVVTKLNNGASMQSIIMEKVMSDAAKNEWDDAVELAKQLASAKIAIETKELAPAVKQAA
For B1, the Ki67 positive cells [1] was “reduction in number of Ki67 positive cells”, the “cyclin D1 expression” value [1] was “reduction in cyclin D1 expression” and the “expression of VEGF” value [1, 8] was “inhibited in both HCT8 and DLD1 cells”. For the same molecule, the “lysis of human RBCs” value (human RBCs) was “failed to induce lysis of human RBCs”, the “nuclear membrane by TEM” value (tumor cell membrane) was “irregular thin nuclear membrane indicating its damage” and the “plasma membrane and mitochondria by TEM” value (tumor cell membrane) was “induced plasma membrane remodelling and mitochondrial damage”. The β-catenin expression ([2]; HCT8 and DLD1 cells) was “caused suppression of β-catenin expression in both HCT8 and DLD1 cells”, the β-catenin localization ([2]; compared to untreated control) was “accumulate at the plasma membrane” and the “β-catenin expression in cytoplasmic and nuclear fractions” value ([2]; fractionated cells) was “caused reduction in β-catenin expression both in cytoplasmic and nuclear fractions”. The β-catenin fragmentation [2, 8] was “β-catenin fragmentation was detected”, the mitochondrial membrane potential (colon carcinoma cells [3]) was “caused depolarization of the mitochondrial membrane” and the tumor cell proliferation (tumor cell proliferation) was “caused significant reduction in tumor cell proliferation”. For the same molecule, the “lethality to C. elegans” value (C. elegans) was “not lethal to C. elegans”, the tumor volume (CT26 cell line) was “caused significant reduction in tumor volume” and the tumor cell morphology (HCT8 cells [4]) was “caused rounding of the cells”. The “Bax accumulation to mitochondria” value (colon carcinoma cells [5]) was “causes accumulation of active Bax to the mitochondria of an apoptotic cell”, the “plasma membrane permeabilization (uptake of propidium iodide)” value (colon carcinoma cells [5]) was “causes permeabilization of tumor cell plasma membrane” and the “nuclear staining of apoptotic cells” value (colon carcinoma cells [5]; fluorescence and confocal microscopy) was “nuclear fragmentation and chromatin condensation”. For the same molecule, the “early and late apoptotic cell death” value (HCT8 cells [6]) was “dose-dependent increase in both early and late apoptotic cell death”, the tumor cell migration (tumor cell migration) was “caused suppression of tumor cell migration in a dose dependent manner” and the “caspase 3 activation” value [7] was “activation of caspase 3”. For the same molecule, the “expression of Bax” value [7] was “induction in expression of pro-apoptotic protein, Bax”, the “expression of Bcl2” value [7] was “decrease in expression of anti-apoptotic protein, Bcl2” and the “expression of cytochrome c” value [7] was “increase in cytochrome c expression”.
